Source: publication doi:10.1101/2023.04.17.536592 (bioRxiv, 2023)

B1: T. brucei histone H2B (natural protein, Trypanosoma brucei brucei)
chain: ATPKSTPAKTRKEAKKTRRQRKRTWNVYVSRSLRSINSQMSMTSRTMKIVNSFVNDLFERIAAEAATIVRVNRKRTLGARELQTAVRLVLPADLAKHAMAEGTKAVSHASS
notes: also called Tb H2B

Tests used:
T. brucei histone H2B = target: B1; test: cryo-EM structure; conditions: both partners purified
T. brucei histone H2A = target: T1, T. brucei histone H2A (Trypanosoma brucei brucei, UniProt Q57YA3 2-134); test: cryo-EM structure; conditions: both partners purified
T1 construct: also called Tb H2A
T1 sequence: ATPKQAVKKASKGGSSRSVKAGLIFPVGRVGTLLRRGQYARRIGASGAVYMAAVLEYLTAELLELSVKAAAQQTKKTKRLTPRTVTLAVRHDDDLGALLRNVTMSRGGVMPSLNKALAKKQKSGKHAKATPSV

| Binder | binding result (T. brucei histone H2B) | binding result (T. brucei histone H2A) |
| --- | --- | --- |
| T. brucei histone H4 (natural protein, also called Tb H4) not shown | binds | – |
| B1 | – | binds |
